According to paper PMC5985294:

Each substance was assayed against Neutrophil elastase (NE), active, human (human) (UniProt P08246).
Chain of UniProt P08246 (P08246 30-267): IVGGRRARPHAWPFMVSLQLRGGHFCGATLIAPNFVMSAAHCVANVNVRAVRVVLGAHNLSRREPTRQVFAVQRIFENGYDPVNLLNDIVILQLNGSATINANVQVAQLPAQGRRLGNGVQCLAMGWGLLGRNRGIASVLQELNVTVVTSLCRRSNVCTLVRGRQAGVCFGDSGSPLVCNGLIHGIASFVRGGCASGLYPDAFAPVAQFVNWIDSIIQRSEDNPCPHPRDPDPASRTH
With “MMP-9-treated SLPI, MMP-9/SLPI molar ratio 1/5 (from UniProt P03973 26-41; P03973 42-96; P03973 97-132)” the IC50 of inhibition of NE (5 nM) degradation of fluorogenic elastase substrate V (MeOSuc-Ala-Ala-Pro-Val-AMC), after 30 min pre-incubation at 37°C was 76.3 nM and the IC50 of inhibition of NE (5 nM) gelatinolytic activity, DQ-gelatin degradation, with 50 µM SB-3CT was 51.2 nM.
In the case of “MMP-9-treated SLPI, MMP-9/SLPI molar ratio 1/20 (from UniProt P03973 26-96; P03973 97-132)”, the IC50 of inhibition of NE (5 nM) degradation of fluorogenic elastase substrate V (MeOSuc-Ala-Ala-Pro-Val-AMC), after 30 min pre-incubation at 37°C is reported as 28.9 nM and the IC50 of inhibition of NE (5 nM) gelatinolytic activity, DQ-gelatin degradation, with 50 µM SB-3CT is reported as 5.24 nM.
In the case of “Secretory leukocyte peptidase inhibitor (SLPI), intact (from UniProt P03973 26-132) (natural protein)”, the IC50 of inhibition of NE (5 nM) degradation of fluorogenic elastase substrate V (MeOSuc-Ala-Ala-Pro-Val-AMC), after 30 min pre-incubation at 37°C is reported as 8.71 nM and the IC50 of inhibition of NE (5 nM) gelatinolytic activity, DQ-gelatin degradation, with 50 µM SB-3CT is reported as 0.97 nM.
